Measured values as given in patent US20220204565A1.
Bridges are numbered along the chain shown (N, C = ends). Where no end group is shown, it is not given here. [ ]: non-standard residue; d: D form. triazolo‑proline = not defined here

Target: HIV-1 BaL.01 Env gp160 on pseudovirus (HIV-1 BaL.01)
Assay: cell-based or functional assay

Binder: DNIPWK-NH2 (lactam 1-6; not fully specified (residue 4)) [cPT 32]
- HIV-1Bal.01 infection inhibition IC50: 7300 nM

Binder: DNI[4‑(4-((2,2'-bithiophen)-5-yl)-1H-1,2,3-triazol-1-yl)proline]WK-NH2 (lactam 1-6) [cPT 37]
- HIV-1Bal.01 infection inhibition IC50: 405 nM

Binder: DNI[triazolo‑proline]W[dK]-NH2 (lactam 1-6; not fully specified; reading uncertain) [cPT 4]
- HIV-1 infection inhibition, fold decrease in activity against cPT 3: > 50 fold

B1: cPT 30 (peptide)
peptide: DNIPWK-NH2
modifications: lactam 1-6; not fully specified (residue 4); also: Pro4 triazole substituent: isoquinoline moiety
- HIV-1Bal.01 infection inhibition IC50: 5000 nM

B2: cPT 16 (peptide)
peptide: DNIPWK-NH2
modifications: lactam 1-6; not fully specified (residue 4); also: Pro4 triazole substituent: phenyl joined through two spacer atoms
- HIV-1Bal.01 infection inhibition IC50: 2020 nM

Binder: DNIPWK-NH2 (lactam 1-6; not fully specified (residue 4)) [cPT 31]
- HIV-1Bal.01 infection inhibition IC50: 1800 nM

Binder: DNI[triazolo‑Pro][benzothienylalanine]K-NH2 (lactam 1-6; not fully specified) [cPT 14]
- HIV-1Bal.01 infection inhibition IC50: 170 nM

Binder: [dD]NI[triazolo‑proline]WK-NH2 (lactam 1-6; not fully specified; reading uncertain) [cPT 5]
- HIV-1 infection inhibition, fold decrease in activity against cPT 3: 7 fold

B3: cPT 38 (peptide)
peptide: NIPWK
modifications: N-terminus of Asn 1 acylated by succinic acid whose other carboxyl is amide-bonded to Lys 5 side-chain amine (macrocycle; replaces Asp, no primary NH2); Pro 3 is 4-(4-(4-(thiophen-2-yl)phenyl)-1H-1,2,3-triazol-1-yl)proline; C-terminal amide
- HIV-1Bal.01 cell infection inhibition IC50: 882 nM
- HIV-1 infection inhibition, fold decrease in potency against cPT 36: 8 fold

Binder: DNIPWK-NH2 (lactam 1-6; not fully specified (residue 4)) [cPT 33]
- HIV-1Bal.01 infection inhibition IC50: 6000 nM
